Measured values: patent publication US20040105862A1

What was measured:
[1] = target: mouse TIMP-1 (mouse) (UniProt P12032); assay: BIAcore SPR
[2] = target: mouse TIMP-1 (mouse) (UniProt P12032); assay: BIAcore SPR, immobilised mouse TIMP-1

Chain of mouse TIMP-1 (mouse) (P12032 25-205 limits assumed): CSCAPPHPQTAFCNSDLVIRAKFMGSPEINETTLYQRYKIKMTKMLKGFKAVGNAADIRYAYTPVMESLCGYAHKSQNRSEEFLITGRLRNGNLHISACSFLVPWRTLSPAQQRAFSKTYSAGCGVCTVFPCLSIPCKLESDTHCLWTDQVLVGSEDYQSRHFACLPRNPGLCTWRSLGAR

fold weaker than the affinity to rat TIMP-1 [1]: 225 fold
Kd [2]: 180 nM
B1: MS-BW-17-1 Fab (Fab, V domains shown)
VH: QVQLVQSGAEVKKPGESLKISCKGSGYSFTSYWIGWVRQMPGKGLEWMGIIYPGDSDTRYSPSFQGQVTISADKSISTAYLQWSSLKASDTAMYYCARLTNYFDSIYYDHWGQGTLVTVSS
VL: DIALTQPASVSGSPGQSITISCTGTSSDVGGYNYVSWYQQHPGKAPKLMIYDVSNRPSGVSNRFSGSKSGNTASLTISGLQAEDEADYYCQAFDVAPNGKVFGGGTKLTVLG
